Data reported in patent US20210380703A1 (RIGEL PHARMACEUTICALS, published 2021).

Columns and labels:
[1] = target: T1, biotinylated goat anti-human kappa light chain; test: ELISA, positive control
T1 construct: positive control of the ELISA
How it was run: (§1)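 Binding signal was read by ELISA after ACVR2A-specific monoclonal antibodies were tested against human ACVR2A and mouse ACVR2A, with human Fc as the negative control.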

human ACVR2A = target: T2, human ACVR2A (human, UniProt P27037 20-135, limits assumed); test: ELISA
T2 construct: coated antigen of the initial ELISA; also called activin receptor, type II A
How it was run: as §1

mouse ACVR2A = target: T3, mouse ACVR2A (mouse, UniProt P27038 20-135, limits assumed); test: ELISA
T3 construct: coated antigen of the initial ELISA
How it was run: as §1
Further: test concentration or dose not given here.

T3 sequence (P27038 20-135 limits assumed): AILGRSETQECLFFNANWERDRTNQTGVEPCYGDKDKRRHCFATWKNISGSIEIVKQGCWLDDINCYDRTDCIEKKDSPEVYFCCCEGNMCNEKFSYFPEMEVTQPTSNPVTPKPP
T2 sequence (P27037 20-135 limits assumed): as the sequence (P27038 20-135 limits assumed) above, with R20K, I73V counted along it

Binder	optical density [1] [OD]	optical density (human ACVR2A) [OD]	optical density (mouse ACVR2A) [OD]
371_G11 (antibody, V domains shown, Group III) VH: EVQLLESGGGLVQPGGSLRLSCAASGFTFSSYGMNWVRQAPGKGLEWVSNINYNSGYTSYADSVKGRFTISRDNSKNTLYLQMNSLRAEDTAVYYCARGANWHDTALDYWGQGTLVTVSS VL: DIQMTQSPSSLSASVGDRVTITCRASQSILSYVNWYQQKPGKAPKLLIYAATSLASGVPSRFSGSGSGTDFTLTISSLQPEDFATYYCQQSYDSPLTFGGGTKVEIK	3.67	2.84	2.75
371_H06 (antibody, V domains shown, Group III) VH: EVQLLESGGGLVQPGGSLRLSCAASGFTFDSYGMNWVRQAPGKGLEWVSGINYNGGYTSYADSVKGRFTISRDNSKNTLYLQMNSLRAEDTAVYYCARGANWHDTALDYWGQGTLVTVSS VL: DIQMTQSPSSLSASVGDRVTITCRASQSISSYLNWYQQKPGKAPKLVIYAVTSRASGVPSRFSGSGSGTDFTLTISSLQPEDFATYYCQQSYDLPLTFGGGTKVEIK	3.7	3.03	3.11
372_D03 (antibody, V domains shown, Group III) VH: EVQLLESGGGLVQPGGSLRLSCAASGFTFSSYSMNWVRQAPGKGLEWVAGINYNSGYKSYADSVKGRFTISRDNSKNTLYLQMNSLRAEDTAVYYCARGANWHDTALDYWGQGTLVTVSS VL: DIQMTQSPSSLSASVGDRVTITCRASQSILSYVNWYQQKPGKAPKLVIYAVTSRHSGVPSRFSGSGSGTDFTLTISSLQPEDFATYYCQQSYDSPLTFGGGTKVEIK	3.6	3.04	3.29
372_B02 (antibody, V domains shown, Group III) VH: EVQLLESGGGLVQPGGSLRLSCAASGFTFSSYSMNWVRQAPGKGLEWVSGINYNSGYTSYADSVKGRFTISRDNSKNTLYLQMNSLRAEDTAVYYCARGANWHDTALDYWGQGTLVTVSS VL: DIQMTQSPSSLSASVGDRVTITCRASQSILSYVNWYQQKPGKAPKLLIYAVTSLASGVPSRFSGSGSGTDFTLTISSLQPEDFATYYCQQSYETPLTFGGGTKVEIK	3.67	3.17	3.51
373_A09 (antibody, V domains shown, Group III) VH: EVQLLESGGGLVQPGGSLRLSCAASGFTFDSYSMNWVRQAPGKGLEWVAGINYNGGYTSYADSVKGRFTISRDNSKNTLYLQMNSLRAEDTAVYYCARGANWHDTALDYWGQGTLVTVSS VL: DIQMTQSPSSLSASVGDRVTITCRASQSILTYLNWYQQKPGKAPKLLIYAATSLASGVPSRFSGSGSGTDFTLTISSLQPEDFATYYCQQSYDTPLTFGGGTKVEIK	3.11	3.66	3.62
373_A12 (antibody, V domains shown, Group III) VH: EVQLLESGGGLVQPGGSLRLSCAASGFTFSSYSMNWVRQAPGKGLEWVSSINYNGGYTSYADSVKGRFTISRDNSKNTLYLQMNSLRAEDTAVYYCARGANWHDTALDYWGQGTLVTVSS VL: DIQMTQSPSSLSASVGDRVTITCRASQSILTYLNWYQQKPGKAPKLVIYAATSRASGVPSRFSGSGSGTDFTLTISSLQPEDFATYYCQQSYDTPLTFGGGTKVEIK	3.09	3.59	3.31
372_C06 (antibody, V domains shown, Group III) VH: EVQLLESGGGLVQPGGSLRLSCAASGFTFSDYSMNWVRQAPGKGLEWVSGINYNGGYTSYADSVKGRFTISRDNSKNTLYLQMNSLRAEDTAVYYCARGANWHDTALDYWGQGTLVTVSS VL: DIQMTQSPSSLSASVGDRVTITCRASQSIVSYVNWYQQKPGKAPKLLIYAATSRASGVPSRFSGSGSGTDFTLTISSLQPEDFATYYCQQSYSSPLTFGGGTKVEIK	3.49	3.21	3.54
372_G12 (antibody, V domains shown, Group III) VH: EVQLLESGGGLVQPGGSLRLSCAASGFTFDSYSMNWVRQAPGKGLEWVAGINYNGGYTGYADSVKGRFTISRDNSKNTLYLQMNSLRAEDTAVYYCARGANWHDTHLDYWGQGTLVTVSS VL: DIQMTQSPSSLSASVGDRVTITCRASQSILTYLNWYQQKPGKAPKLVIYAATSRHSGVPSRFSGSGSGTDFTLTISSLQPEDFATYYCQQSYDSPLTFGGGTKVEIK	3.5	2.41	2.73
373_B05 (antibody, V domains shown, Group III) VH: EVQLLESGGGLVQPGGSLRLSCAASGFTFSDYSMNWVRQAPGKGLEWVSNINYNGGYKSYADSVKGRFTISRDNSKNTLYLQMNSLRAEDTAVYYCARGANWHDTALDYWGQGTLVTVSS VL: DIQMTQSPSSLSASVGDRVTITCRASQSIVTYLNWYQQKPGKAPKLVIYAATSRASGVPSRFSGSGSGTDFTLTISSLQPEDFATYYCQQSYSNPLTFGGGTKVEIK	3.23	3.59	3.53
372_E01 (antibody, V domains shown, Group III) VH: EVQLLESGGGLVQPGGSLRLSCAASGFTFDDYSMNWVRQAPGKGLEWVSGINYNGGYKGYADSVKGRFTISRDNSKNTLYLQMNSLRAEDTAVYYCARGANWHDTALDYWGQGTLVTVSS VL: DIQMTQSPSSLSASVGDRVTITCRASQSIVSYLNWYQQKPGKAPKLVIYAATSRHSGVPSRFSGSGSGTDFTLTISSLQPEDFATYYCQQSYDSPLTFGGGTKVEIK	3.6	3.34	3.34
373_A11 (antibody, V domains shown, Group III) VH: EVQLLESGGGLVQPGGSLRLSCAASGFTFSNYGMNWVRQAPGKGLEWVANINYNGGYTGYADSVKGRFTISRDNSKNTLYLQMNSLRAEDTAVYYCARGANWHDTALDYWGQGTLVTVSS VL: DIQMTQSPSSLSASVGDRVTITCRASQSILTYLNWYQQKPGKAPKLLIYAATSRASGVPSRFSGSGSGTDFTLTISSLQPEDFATYYCQQSYDLPLTFGGGTKVEIK	3.09	3.76	3.68
371_H08 (antibody, V domains shown, Group III) VH: EVQLLESGGGLVQPGGSLRLSCAASGFTFSSYGMNWVRQAPGKGLEWVASINYNGGYKGYADSVKGRFTISRDNSKNTLYLQMNSLRAEDTAVYYCARGANWHDTHLDYWGQGTLVTVSS VL: DIQMTQSPSSLSASVGDRVTITCRASQSIISYVNWYQQKPGKAPKLVIYAVTSRASGVPSRFSGSGSGTDFTLTISSLQPEDFATYYCQQSYDTPLTFGGGTKVEIK	3.47	1.66	2.04
373_A03 (antibody, V domains shown, Group III) VH: EVQLLESGGGLVQPGGSLRLSCAASGFTFSDYSMNWVRQAPGKGLEWVANINYNGGYTGYADSVKGRFTISRDNSKNTLYLQMNSLRAEDTAVYYCARGANWHDTALDYWGQGTLVTVSS VL: DIQMTQSPSSLSASVGDRVTITCRASQSILSYLNWYQQKPGKAPKLVIYAATSRASGVPSRFSGSGSGTDFTLTISSLQPEDFATYYCQQSYDNPLTFGGGTKVEIK	3.08	3.65	3.63

The remaining lines, values ahead:

optical density [1] [OD]	optical density (human ACVR2A) [OD]	optical density (mouse ACVR2A) [OD]	Binder
2.95	3.18	3.48	373_A01 (antibody, V domains shown, Group III) VH: EVQLLESGGGLVQPGGSLRLSCAASGFTFSSYGMNWVRQAPGKGLEWVSNINYNGGYTGYADSVKGRFTISRDNSKNTLYLQMNSLRAEDTAVYYCARGANWHDTHLDYWGQGTLVTVSS VL: DIQMTQSPSSLSASVGDRVTITCRASQSIVTYLNWYQQKPGKAPKLVIYATTSRASGVPSRFSGSGSGTDFTLTISSLQPEDFATYYCQQSYNLPLTFGGGTKVEIK
3.55	2.19	2.55	371_H10 (antibody, V domains shown, Group III) VH: EVQLLESGGGLVQPGGSLRLSCAASGFTFSSYSMNWVRQAPGKGLEWVAGINYNSGYKSYADSVKGRFTISRDNSKNTLYLQMNSLRAEDTAVYYCARGANWHDTHLDYWGQGTLVTVSS VL: DIQMTQSPSSLSASVGDRVTITCRASQSISTYLNWYQQKPGKAPKLLIYAATSRHSGVPSRFSGSGSGTDFTLTISSLQPEDFATYYCQQSYENPLTFGGGTKVEIK
3.03	3.45	3.42	373_A05 (antibody, V domains shown, Group III) VH: EVQLLESGGGLVQPGGSLRLSCAASGFTFSDYSMNWVRQAPGKGLEWVSGINYNSGYKSYADSVKGRFTISRDNSKNTLYLQMNSLRAEDTAVYYCARGANWHDTHLDYWGQGTLVTVSS VL: DIQMTQSPSSLSASVGDRVTITCRASQSILSYVNWYQQKPGKAPKLVIYAATSRHSGVPSRFSGSGSGTDFTLTISSLQPEDFATYYCQQSYESPLTFGGGTKVEIK
3.3	3.66	3.61	373_B07 (antibody, V domains shown, Group III) VH: EVQLLESGGGLVQPGGSLRLSCAASGFTFDSYSMNWVRQAPGKGLEWVSGINYNGGYTSYADSVKGRFTISRDNSKNTLYLQMNSLRAEDTAVYYCARGANWHDTALDYWGQGTLVTVSS VL: DIQMTQSPSSLSASVGDRVTITCRASQSILTYVNWYQQKPGKAPKLVIYAATSRASGVPSRFSGSGSGTDFTLTISSLQPEDFATYYCQQSYELPLTFGGGTKVEIK
3.27	1.2	1.25	371_H05 (antibody, V domains shown, Group III) VH: EVQLLESGGGLVQPGGSLRLSCAASGFTFSSYGMNWVRQAPGKGLEWVSGINYNSGYKSYADSVKGRFTISRDNSKNTLYLQMNSLRAEDTAVYYCARGANWHDTALDYWGQGTLVTVSS VL: DIQMTQSPSSLSASVGDRVTITCRASQSIISYLNWYQQKPGKAPKLLIYAATSLASGVPSRFSGSGSGTDFTLTISSLQPEDFATYYCQQSYSLPLTFGGGTKVEIK
3.58	3.26	3.51	371_H04 (antibody, V domains shown, Group III) VH: EVQLLESGGGLVQPGGSLRLSCAASGFTFSSYGMNWVRQAPGKGLEWVSNINYNGGYTGYADSVKGRFTISRDNSKNTLYLQMNSLRAEDTAVYYCARGANWHDTALDYWGQGTLVTVSS VL: DIQMTQSPSSLSASVGDRVTITCRASQSILTYLNWYQQKPGKAPKLLIYAATSRASGVPSRFSGSGSGTDFTLTISSLQPEDFATYYCQQSYNSPLTFGGGTKVEIK
